Laboratory results from patent US20150376265A1 (Genentech, published 2015).
Numbering of substitutions follows the chain as printed.

How the values were obtained:
Experiment in all cases: cell-based or functional assay
[1] = biological target: T1, Complex I with gH W168R, on virions of HB1 - mutant virus 6 (HCMV, UniProt P12824 24-743; P16832 31-278; P16837 28-171; F5HCP3 26-214; F5HET4 19-129)
T1 chain 1: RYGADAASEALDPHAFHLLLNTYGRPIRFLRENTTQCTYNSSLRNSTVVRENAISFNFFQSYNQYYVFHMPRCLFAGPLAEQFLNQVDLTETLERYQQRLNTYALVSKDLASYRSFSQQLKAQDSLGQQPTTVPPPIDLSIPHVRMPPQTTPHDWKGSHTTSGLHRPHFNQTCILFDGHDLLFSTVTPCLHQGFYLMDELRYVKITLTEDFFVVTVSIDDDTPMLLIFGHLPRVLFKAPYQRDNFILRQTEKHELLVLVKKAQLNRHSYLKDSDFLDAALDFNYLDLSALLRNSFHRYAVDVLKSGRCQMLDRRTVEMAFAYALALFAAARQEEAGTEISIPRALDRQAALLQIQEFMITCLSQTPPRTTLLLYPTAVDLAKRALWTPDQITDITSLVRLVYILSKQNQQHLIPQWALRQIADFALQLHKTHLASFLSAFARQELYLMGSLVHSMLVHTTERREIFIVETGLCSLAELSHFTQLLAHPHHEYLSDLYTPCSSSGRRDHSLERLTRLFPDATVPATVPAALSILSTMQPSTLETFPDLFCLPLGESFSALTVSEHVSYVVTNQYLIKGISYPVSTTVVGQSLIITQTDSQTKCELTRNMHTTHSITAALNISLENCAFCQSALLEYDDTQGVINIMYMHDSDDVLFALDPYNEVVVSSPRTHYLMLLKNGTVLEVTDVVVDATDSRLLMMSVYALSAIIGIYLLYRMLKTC
T1 chain 2: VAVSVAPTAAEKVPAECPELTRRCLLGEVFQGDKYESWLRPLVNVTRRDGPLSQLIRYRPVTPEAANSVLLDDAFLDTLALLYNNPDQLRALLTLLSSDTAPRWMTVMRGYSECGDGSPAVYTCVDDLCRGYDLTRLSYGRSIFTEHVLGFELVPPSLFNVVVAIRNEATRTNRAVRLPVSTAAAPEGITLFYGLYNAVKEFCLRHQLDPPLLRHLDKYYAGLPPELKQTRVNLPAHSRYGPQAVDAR
T1 chain 3: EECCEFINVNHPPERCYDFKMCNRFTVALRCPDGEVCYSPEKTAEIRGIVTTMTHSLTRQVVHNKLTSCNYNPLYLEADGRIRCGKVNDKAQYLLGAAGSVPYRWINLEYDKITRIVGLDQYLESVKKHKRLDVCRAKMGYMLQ
T1 chain 4: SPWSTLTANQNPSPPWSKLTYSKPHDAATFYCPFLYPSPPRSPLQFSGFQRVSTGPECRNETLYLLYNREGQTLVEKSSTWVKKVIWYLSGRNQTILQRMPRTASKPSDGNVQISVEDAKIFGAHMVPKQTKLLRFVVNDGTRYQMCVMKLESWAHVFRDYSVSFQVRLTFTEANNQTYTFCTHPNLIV
T1 chain 5: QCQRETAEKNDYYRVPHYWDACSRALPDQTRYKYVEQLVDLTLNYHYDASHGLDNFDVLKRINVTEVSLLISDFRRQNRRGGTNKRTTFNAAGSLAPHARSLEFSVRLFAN

[2] = biological target: T2, Complex I with gH P171H, on virions of HB1 - mutant virus 1 (HCMV, UniProt P12824 24-743; P16832 31-278; P16837 28-171; F5HCP3 26-214; F5HET4 19-129)
T2 chain 1: T1 chain 1 with R145W, P148H
T2 chain 2: T1 chain 2
T2 chain 3: T1 chain 3
T2 chain 4: T1 chain 4
T2 chain 5: T1 chain 5

[3] = biological target: T3, Complex I with gH D446N, on virions of HB1 - mutant virus 4 (HCMV, UniProt P12824 24-743; P16832 31-278; P16837 28-171; F5HCP3 26-214; F5HET4 19-129)
T3 chain 1: T1 chain 1 with R145W, D423N
T3 chain 2: T1 chain 2
T3 chain 3: T1 chain 3
T3 chain 4: T1 chain 4
T3 chain 5: T1 chain 5

B1: hu8G8 (lambda4 8G8 graft and hu8G8.VH1) (antibody, V domains shown)
VH: EVQLVQSGAEVKKPGASVKVSCKASGYTFTNYGMNWVRQAPGQGLEWIGWINTYTGEPTYADDFKGRVTITRDTSTSTAYLELSSLRSEDTAVYYCARSWYYVSNYWYFDVWGQGTLVTVSS
VL: SVLTQSPSASASLGASVKLTCTLSSQHSTYTIEWYQQQPGKGPRYLMKLKKDGSHSTGDGIPDRFSGSSSGADRYLTISNLQSEDEADYYCGVGDTIKEQFVYVFGGGTKLTVLG
notes: also called hu8G8 with VH1; Humanized 8G8 with VH1
hu8G8 EC50, neutralisation of HB1 - mutant virus 6, Data Set 2 [1]: 1 ng/mL | hu8G8 EC50, neutralisation of HB1 - mutant virus 1, Data Set 1 [2]: 10 ng/mL | hu8G8 EC50, neutralisation of HB1 - mutant virus 1, Data Set 2 [2]: 0.6 ng/mL | hu8G8 EC50, neutralisation of HB1 - mutant virus 4, Data Set 2 [3]: 0.1 ng/mL
